We go through 19 molecules from paper PMC8651671.

For one data set, the target named is WbpB (Pseudomonas aeruginosa, UniProt G3XD23). Nature of the data set: HPLC product analysis, biosensor assay and bound-NADH oxidation with purified enzyme. In kind it is biochemical.
Data set [1] has as its target D-2-hydroxyglutarate dehydrogenase regulator (DhdR) of Achromobacter denitrificans NBRC 15125 (Achromobacter denitrificans NBRC 15125). The data set can be described thus: SEC; Superdex 200 10/300 GL, 50 mM sodium phosphate, 150 mM NaCl, pH 7.2, 0.5 mL min^-1; native molecular weight against standard proteins, compared with SDS-PAGE.
The target of data set [2] is 3-phosphoglycerate dehydrogenase (SerA) of Achromobacter denitrificans NBRC 15125 (Achromobacter denitrificans NBRC 15125). Described as above.
The target of the next data set is T1, DhdR.
T1 construct: His6-tagged DhdR
Nature of the data set: ITC; also thermal shift (ΔTm […] °C), EMSA, AlphaScreen. In kind it is binding, Achromobacter denitrificans.

Another data set deals with T2, SerA (Achromobacter denitrificans, UniProt A0A3R9FY19).
T2 sequence (A0A3R9FY19 1-399): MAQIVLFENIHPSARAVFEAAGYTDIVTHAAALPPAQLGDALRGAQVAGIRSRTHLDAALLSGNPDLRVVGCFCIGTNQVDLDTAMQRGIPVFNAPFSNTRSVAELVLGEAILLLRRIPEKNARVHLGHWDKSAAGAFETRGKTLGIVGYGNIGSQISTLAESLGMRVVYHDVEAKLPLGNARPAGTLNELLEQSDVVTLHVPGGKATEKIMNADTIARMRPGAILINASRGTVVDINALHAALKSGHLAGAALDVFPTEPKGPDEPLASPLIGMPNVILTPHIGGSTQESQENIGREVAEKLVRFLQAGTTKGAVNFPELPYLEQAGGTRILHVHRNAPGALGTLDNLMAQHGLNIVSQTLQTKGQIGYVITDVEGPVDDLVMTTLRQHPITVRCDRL
Nature of the data set: product of 2-KG reduction by purified enzyme. Type of data set: biochemical.

Data set [3] has as its target D-2-HG dehydrogenase (D2HGDH) of Achromobacter denitrificans NBRC 15125 (Achromobacter denitrificans NBRC 15125). Nature of the data set: SEC; Superdex 200 10/300 GL, 50 mM sodium phosphate, 150 mM NaCl, pH 7.2, 0.5 mL min^-1; native molecular weight against standard proteins, compared with SDS-PAGE.
Data set [4] concerns the target T3, DhdR (GntR family regulator) (Achromobacter denitrificans NBRC 15125, UniProt A0A6N0JVZ6 1-238).
T3 sequence: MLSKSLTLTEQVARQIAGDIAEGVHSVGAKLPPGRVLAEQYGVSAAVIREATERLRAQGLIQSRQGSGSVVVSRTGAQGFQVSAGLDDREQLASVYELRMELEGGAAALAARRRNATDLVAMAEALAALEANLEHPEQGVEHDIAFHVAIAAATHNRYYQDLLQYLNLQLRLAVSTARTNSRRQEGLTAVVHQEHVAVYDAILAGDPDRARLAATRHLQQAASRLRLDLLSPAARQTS
Nature of the data set: ITC; EMSA/footprint: 10 mM Tris-HCl pH 7.4, 50 mM KCl, 0.5 mM EDTA, 10% glycerol, 1 mM DTT, 30 C; ITC: 25 C, same buffer as FTS assays (composition not in material). The following applies: protein: recombinant; tags: His6 (pETDuet-1); chain copies: 2; blunt. (Isothermal titration calorimetry measures the heat released or taken up as one component is titrated into another.)

Data set [5] concerns the target T3, DhdR (GntR family regulator). The data set can be described thus: ITC; Supplementary Table 4 prints 3.03; EMSA/footprint: 10 mM Tris-HCl pH 7.4, 50 mM KCl, 0.5 mM EDTA, 10% glycerol, 1 mM DTT, 30 C; ITC: 25 C, same buffer as FTS assays (composition not in material). The following applies: protein: recombinant; tags: His6 (pETDuet-1); chain copies: 2; blunt.

Sequence of WbpB (G3XD23 whole entry): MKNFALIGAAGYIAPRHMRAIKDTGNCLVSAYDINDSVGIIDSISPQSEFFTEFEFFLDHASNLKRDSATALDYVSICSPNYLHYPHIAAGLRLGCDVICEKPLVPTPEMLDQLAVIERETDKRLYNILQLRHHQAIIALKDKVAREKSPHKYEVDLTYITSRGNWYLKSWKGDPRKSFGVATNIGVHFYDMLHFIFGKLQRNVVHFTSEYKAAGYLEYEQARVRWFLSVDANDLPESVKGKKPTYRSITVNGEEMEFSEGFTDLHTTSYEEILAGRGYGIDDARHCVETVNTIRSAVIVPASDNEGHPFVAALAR

On to `O=C(O)CCC(=O)C(=O)O` [2-KG], for which the “HPLC product analysis, biosensor assay and bound-NADH oxidation with purified en” value at WbpB is listed as “confirmed that WbpB also catalyzes the reduction of 2-KG to produce D-2-HG”.

Usually stoichiometry N stands for a count of units in the complex or per binding partner. In turn, “D-2-hydroxyglutarate dehydrogenase regulator (DhdR) of Achromobacter denitrificans NBRC 15125 (natural protein)” showed a stoichiometry N in data set [1] of 2.

In data set [2], “3-phosphoglycerate dehydrogenase (SerA) of Achromobacter denitrificans NBRC 15125 (enzyme)” gave a stoichiometry N of 4.

Usually Kd stands for the equilibrium constant for the complex coming apart. As to `O=C(O)CC[C@@H](O)C(=O)O` [D-2-HG], the Kd on DhdR worked out at 1.16 ± 0.16 µM. The “product of 2-KG reduction by purified enzyme” value at SerA was “It was also able to reduce 2-KG to D-2-HG”.

Regarding “D-2-HG dehydrogenase (D2HGDH) of Achromobacter denitrificans NBRC 15125 (enzyme)”, the stoichiometry N in data set [3] is 2.

B1: D8 (dhdO 8#) (dsDNA)
DNA 1: AAATTGATCAGATAACCTGAAAAGTAG
DNA 2: CTACTTTTCAGGTTATCTGATCAATTT
On to B1, for which the Kd in data set [4] was 4.02 ± 0.92 µM.

B2: D10 (dhdO 10#) (dsDNA)
DNA 1: AAATTTAGCAGATAACCTGAAAAGTAG
DNA 2: CTACTTTTCAGGTTATCTGCTAAATTT
With B2, the binding result in data set [4] is given as “no binding”.

B3: D5 (dhdO 5#) (dsDNA)
DNA 1: AAAGTTAGCAGATAACCTGAAAAGTAG
DNA 2: CTACTTTTCAGGTTATCTGCTAACTTT
For B3, the Kd in data set [4] came out at 1.14 ± 0.37 µM.

B4: D12 (dhdO 12#) (dsDNA)
DNA 1: AAAGGGATCAGATAACCTGAAAAGTAG
DNA 2: CTACTTTTCAGGTTATCTGATCCCTTT
In the case of B4, the Kd in data set [4] worked out at 6.25 ± 1.82 µM.

B5: D3 (dhdO 3#) (dsDNA)
DNA 1: AAAGTGATCAGATAACCTGAAAAGTAG
DNA 2: CTACTTTTCAGGTTATCTGATCACTTT
With B5, the dissociation constant (Kd) in data set [4] worked out at 1.19 ± 0.25 µM.

B6: D7 (dhdO 7#) (dsDNA)
DNA 1: AAATGTATCAGATAACCTGAAAAGTAG
DNA 2: CTACTTTTCAGGTTATCTGATACATTT
Take B6: the Kd in data set [4] was 5.81 ± 2.15 µM.

B7: D4 (dhdO 4#) (dsDNA)
DNA 1: AAAGTTCTCAGATAACCTGAAAAGTAG
DNA 2: CTACTTTTCAGGTTATCTGAGAACTTT
For the molecule B7, in data set [4], the Kd is 0.58 ± 0.09 µM.

B8: D1 (dhdO 1#) (dsDNA)
DNA 1: AAATTTATCAGATAACCTGAAAAGTAG
DNA 2: CTACTTTTCAGGTTATCTGATAAATTT
Regarding B8, the Kd in data set [5] was 3.29 ± 0.72 µM.

B9: D13 (dhdO 13#) (dsDNA)
DNA 1: AAAGGTCTCAGATAACCTGAAAAGTAG
DNA 2: CTACTTTTCAGGTTATCTGAGACCTTT
With B9, the Kd in data set [4] came out at 2.46 ± 0.51 µM.

B10: D11 (dhdO 11#) (dsDNA)
DNA 1: AAATTTATAAGATAACCTGAAAAGTAG
DNA 2: CTACTTTTCAGGTTATCTTATAAATTT
As to B10, in data set [4], the Kd worked out at 3.23 ± 1.41 µM.

B11: D0 (dhdO 0#) (dsDNA)
DNA 1: AAAGTTATCAGATAACCTGAAAAGTAG
DNA 2: CTACTTTTCAGGTTATCTGATAACTTT
As for B11, the equilibrium dissociation constant (Kd) in data set [4] is 0.64 ± 0.1 µM.

B12: D9 (dhdO 9#) (dsDNA)
DNA 1: AAATTTCTCAGATAACCTGAAAAGTAG
DNA 2: CTACTTTTCAGGTTATCTGAGAAATTT
With B12, the Kd in data set [4] is 3.23 ± 1.27 µM.

B13: D2 (dhdO 2#) (dsDNA)
DNA 1: AAAGGTATCAGATAACCTGAAAAGTAG
DNA 2: CTACTTTTCAGGTTATCTGATACCTTT
On to B13, for which, in data set [4], the dissociation constant Kd worked out at 2.67 ± 0.53 µM.

B14: D6 (dhdO 6#) (dsDNA)
DNA 1: AAAGTTATAAGATAACCTGAAAAGTAG
DNA 2: CTACTTTTCAGGTTATCTTATAACTTT
Take B14: the Kd in data set [4] came to 0.73 ± 0.18 µM.
